Among the data in a protein production outcome set (Wang et al. 2014) are protein production values, retold here.

A short description of this data set: label from the status in PepcDB records.
Consider “MNIEQMLAILDPDVVQRLKIAVEIGKWPNGVALTAEQRQICMQAVMIWEHKHLPEEERTGYIDRGTKEEGEECDSHEPEIKPIRFI”, for which the protein production result is given as “failed”.

Consider “MNIPNLLTLFRFFLIPCFIFAFFSRSNDSLINSAIIFFIAGFTDILDGYIARKFNEITKYGTVMDPLADKLMLLTVLCCLTIKGYIPLLILLIMLAKEFSMIIIGVFLYGKNIIIPANIWGKLSTLIFYVAILFFTFSKFLGTYLLYIAILGAVVAYINYFLIFLSKYRQNATK”, for which the protein production result was “failed”.

In the case of “MNIQQLEYIAALDKFRHFAKAADYCNVSQPTLSTMILKLEEELGAKLFDRSRQPIEPTSIGALVVSQAKQILYDLNSITRIIEEEQ”, the protein production result is “failed”.

For the sequence “MNIQSELEFKFAHYLINNAVEASFCLGDNWQFLYVNDATCRMTEYSREQLLSMNLQDIDVDFALHDWEEIRQKNNYTFKTRYRSQSGRIFLVEMSLTFLEDQERRFSCVFVREKS”, the protein production result is “not failed”.

As to “MNIRIAEELDVPALAELYQTTVLAVAPQHYSPEQTQMWASFASDTDNFQKFILNATTFIATDERGILGFAGITEDGHVTATYVRSDLIRQGIGSILMEKILEYAHLHKIRRLYAEASEFSLGLFQKFGFHIYDTEIVNRQGVLFRRYIVERS”, the protein production entry was “failed”.

On to “MNISLVFPPFHLQSLYNLPPLGLISLATVLGEAGHRAVIRDLVLALRQGSLGMGKELYGEAARMILRDDPDLVGFSAQCTTFPAVVRIARLLKEQKPDLRIVAGGHNVSFLDVPTLERFPWIDAVVRGEGEVTFRELAASFAVGNDPAEVAGVTWRRGTEIVRNPDRELIADLDTLPLPDYTLVPPLASYRDACGIPRSIAILEVGRGCPHRCVYCSESVMWRRRTRTFSIPRLIREMEELHGRFGAECLVLAYDQFTADRRFVEEFCNRVIDARLNRVPWYCISRLDSLDRPLLDLMREAGCESMCYGIDSGSRRTLAFIGKEIDEGILYQRVRETTEAGMVPTLSFVIGFPEEEREDIDQTLFLALKAGVQGNSAPLVQLPTVLAGTELHRRYTGRLVREVDTYFSLGLEFDHGRRLADDERLIDADPFLFSSFYNLPCAGVPLAELDRIARWFPLILNGYPKSFILLSLALGRPPSNLFREILSRLEEDGWREDDPTAETAFLERFPCHAEGLMAGSASWPHFAEILTYETLALRATHRGPPRADGAGPLKGDPAGECRPVLREEVTVSEFRRNLPAIIADLKSGIFRESYPPEPTLLIFYPSGERLEVMEINRFGKDFLLLCNGLATCEEIAATLYGEYGDAMDSGAFSEECKDALTVFTGMGLVRDGAAPAP”, for which the protein production result is on record as “failed”.

With “MNIVYLLMLSLILFSIGLYGISTSNVGIKMLISLEIIINSAILAGVSISSFYFSTGVLIFVLFAIAIGVIESAVGIAILTMVYKKYGRITISLLKEIKW”, the protein production result is on record as “failed”.

In the case of “MNIYSLFVVAIALSLDAFGVALSIGLDSCVKRKNKLLFAISFGFFQFLCTFIGAYSGFLFNTYITYVPQIIGGMIIAFVGAFMIKEGFDNKEEKLLLNFKMYFVLGISVSIDAAVVGFTMFNKISSNYVILGDSVFIGIVTLILSIIAFIISRYLKRIQLVCKYADYIGGIILVIFGLKMMFF”, the protein production entry was “failed”.

As for “MNKAGARASDQETRRFGFVEWFRPGDYERAEVALPDILESGASYLRTHLSWAEYLAPGGQQWFDWLIPRIGGQIDLLPCIHYTPPSLSRTGRSSGPPVNLKSYADFVDHVLTRYGRYISHIELWNEPNNLLDWDWRHDSDFLLFCEMVGGAAYWAKQRGYKPVLGGPCPFDPYWLNLMGTRGVLGVVDAVGFHGFPGTWDSEEATWGGWDMHLGEMRGIIDRYNADAEIWITETGYSTWRNDEIEQARRFTKALKVPADRMYWYSWRDVPPDVPVQEGLWFDPRHYHLGAVSHDNKPKLLARLLTEGGVKRLEEVAALAAPNITSGAAPIIVTGGSGFVGCNLADRLLSDGEDVIILDNLARSGVDQNLSWLKERHGGRVHPVLADVRDLLGIEAAFRDAKAVFHYAAQTAVTTSLVDPLEDFETNARGTLNVLESIRRAGKRAPIIFASTNKVYGALDDLGMIELDDRYLPEDESIRTLGIGEDRPLDFCTPYGCSKGVADQYILDYAKSYGIPAAVLRMSCIYGPRQFGTEDQGWVAHFLIRALGGEPISIYGDGKQVRDILHVDDAVAAYRVLLSNIGQVSGKAFNLGGGPRNAVSVLAVLREIEELAGRPVETSFGPWRAGDQLYFVADTTRLEQETGWQAGIGWRHGLRHLAEWLIAHRFGGRQIRREKRKASA”, the protein production entry is “failed”.

As to “MNKALKALGVLTTFVMLIVLIGGALVTKTGSGQGCGRQWPLCHGRFFPELNPASIIEWSHRFASGISIILVLSLAFWSWRKITPIFRETTFLAIMSIIFLFLQALLGALAVVFGSNALIMALHFGISLISFASVLILTLLIFEADKSVRTLVKPLQIGKKMQFHMIGILIYSYIVVYTGAYVRHTESSLACPNVPLCSPLNNGLPTQFHEWVQMGHRAAALLLFVWIIVAAVHAITSYKDQKQIFWGWISCLIFITLQALSGIMIVYSELALGFALAHSFFIACLFGVLCYFLLLIARFRYESRQS”, the protein production entry was “failed”.

For “MNKALWYVVLPALLVTVLAQRFGHLTVNFPLKSVFGGAAPAEAALHRRIALPSGFSLTVYAADLPGARMLRFTRTGDLLVSQPNAGAIVLLEKDADGDGRPDGRRQLLTGLSRPHGLDLRDGWLYVAETYGVVRVRYDAAQRQISGAPEMVVSGIPGGGNHWSRTLKFGPDGGMYVSVGSSCNVCIEDDPLRATLLRFEPDGTKREIYATGLRNTVGFDWRPGSRELYGTDNGRDLLGDDFPPCELNRIEKGGFYGWPYANGNRVPDPDYGRGHEADIRRSLPPVHEFRAHVAPLGMVFLKGGGLPQDYRGAALVALHGSWNRSKKQGYEVVSLHFGADGRIAERPFMTGFNVDEDVIGRPVDVAEGPDGAIYVSDDYAGAIYRVLYRPPVTASHD”, the protein production entry is reported as “failed”.

As to “MNKFENFYKVPISYKNRKNEIYKYDNLEYNKMKYGMPEYYRCPYYMHENRNLYNTESCYTPNINVGRNSFYGKTLDPNDKICEENDSVYNILEEDHKEESFKKIECMNKEDDRKKIYNKVEKNDDENIDNKKHNYCEKYEEVYPKDRSSIKIIYNDVDQQIDHNLYDDENEIVCDNEIKKRKKRDRKVFMGKYFFSDIINTIIYPCTNKSLQKYQYGSVENMDYSLYNDIQKGQKIQKVDKIKNKKAPQIIVKF”, the protein production result is reported as “failed”.

With “MNKFLVSLFLPLVAFANSSEAAANANLFGAFTLIPPLVAIALAFITKDVILSLFTGVLSGTFLLSLSANIFKAQHLTFVNYYNTTVESFSKIISYILGSTSDPVNAGIILQILCIGGLVALITKMGGAKAVALKFAKRAKSAVSAQVNTWFLGLLIFFDDYANLLIVGPIMRPLADKFKISREKFAFIIDSTAAPVAGIAVISTWIGLEVSLIKTAYEHIGISNISAFGIFVETIPYRFYNIFMLFFVVMTAIMRREFGSMYKAEVRARTTGQIAPLPKSGTLDTTELEDQFLAPKEGIKIRAFDAIVPIFTLIILAILGFYFNGLSTLEGEELAKASANPLSFETFRAAFGNADSSVVLFQAALFAAIVAIFIGVRRKIFNLKEAVETWIYGWKTMIFTIVLLLFAWSLSSIVKDLGTSLFITSLLADKLPEFILPATIFAFASAISFAIGTSYGTMGILMPLAVPLAHEIAKINGMDANAMHHYMVINISCVLTGAIFGNHCSPISDNVILSSMSAKCDHMEHVRTQIPYALFICGISLIAGYIPVSLGLSVWFVLPLNFILIALLLRLIGKKVP”, the protein production result is reported as “failed”.

As to “MNKITSAFIRVLRQSSSSGGTGNLLGRQLSYKSDLSLDKIYPGARLQIYTPPPPPSGSDKFSGFIPMDRLEITYSRSSGPGGQHVNTVNTKVDVRFKVAQADWIPEQTRQKLLKVLANRITKDGYFYIKSDLTRSQQMNLADALEKLRTIIRSQEAVAPAPPSEETLEKLRRRQERAVRERLQLKRGRAQVKADRQGPSGLDL”, the protein production result is reported as “failed”.

In the case of “MNKKILLIGGGGHCKSVLDSLLDLDEYDDIGIIDTKENVGKAVLGTPILGYDRDLPSLYKDGYHYAFVAVGSIGNPSVRIRLFNTLCEMGFIIPNIVDASAKVSKHSQIDKGVFIGKHVVVNAGAVIGQGAIINSGAIVEHDCEIGEFVHIAPGTVLCGGVKIGRHSHIGTNSTVKQGIHIGSNCLIGMGSVVTKNIRDNVIAYGNPCREVKNLLEHHHHHH”, the protein production entry was “failed”.
